Results taken from article doi:10.1101/2022.10.05.511050 (bioRxiv, 2022).
Where “and” joins values, the source holds several entries; their conditions need not be identical. Identical values can stand only once.

Molecular target: HA-tagged NLRC4 (UniProt Q3UP24 1-1024)
Assay: co-IP

Sequence of HA-tagged NLRC4 (Q3UP24 whole entry): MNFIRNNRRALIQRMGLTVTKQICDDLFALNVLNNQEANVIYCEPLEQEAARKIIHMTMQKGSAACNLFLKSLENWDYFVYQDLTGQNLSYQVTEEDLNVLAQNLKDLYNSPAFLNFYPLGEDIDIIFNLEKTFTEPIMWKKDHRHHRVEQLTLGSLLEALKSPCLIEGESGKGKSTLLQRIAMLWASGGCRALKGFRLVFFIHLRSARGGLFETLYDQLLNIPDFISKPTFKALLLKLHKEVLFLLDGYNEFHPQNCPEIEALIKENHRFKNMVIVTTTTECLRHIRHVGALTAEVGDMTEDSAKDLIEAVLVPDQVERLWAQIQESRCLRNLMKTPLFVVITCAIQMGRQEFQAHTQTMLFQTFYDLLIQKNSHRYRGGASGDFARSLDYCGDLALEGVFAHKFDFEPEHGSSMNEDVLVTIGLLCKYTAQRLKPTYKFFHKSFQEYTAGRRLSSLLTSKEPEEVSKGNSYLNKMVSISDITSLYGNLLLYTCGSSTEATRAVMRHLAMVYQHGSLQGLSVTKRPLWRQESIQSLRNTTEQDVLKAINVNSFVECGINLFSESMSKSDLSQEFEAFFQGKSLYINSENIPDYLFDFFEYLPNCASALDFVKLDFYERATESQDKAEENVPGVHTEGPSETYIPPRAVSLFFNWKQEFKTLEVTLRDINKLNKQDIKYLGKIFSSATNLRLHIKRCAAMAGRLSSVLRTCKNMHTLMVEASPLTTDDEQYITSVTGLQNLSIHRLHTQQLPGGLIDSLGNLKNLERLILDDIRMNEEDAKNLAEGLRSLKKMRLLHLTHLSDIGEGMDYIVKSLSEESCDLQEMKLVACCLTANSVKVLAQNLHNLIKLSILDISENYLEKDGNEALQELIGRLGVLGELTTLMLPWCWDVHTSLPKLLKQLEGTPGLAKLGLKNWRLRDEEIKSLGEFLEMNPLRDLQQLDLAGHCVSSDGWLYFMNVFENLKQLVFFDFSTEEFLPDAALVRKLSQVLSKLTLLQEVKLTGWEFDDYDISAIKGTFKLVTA

stoichiometry N: < 0.05 PELO per NLRC4 and ~0.05 PELO per NLRC4
B1: HA-tagged PELO (natural protein)
chain: MKLVRKDIEKDNAGQVTLVPEEPEDMWHTFNLVQVGDSLRASTIRKVQTESSTGSVGSNRVRTTLTLCVEAIDFDSQACQLRVKGTNIQENEYVKMGAYHTIELEPNRQFTLAKKQWDSVVLERIEQACDPAWSADVAAVVMQEGLAHVCLVTPSMTLTRAKVEVNIPRKRKGNCSQHDRALERFYEQVVQAIQRHINFEVVKCVLVASPGFVREQFCDYMFQQAVKTDNKVLLENRSKFLQVHASSGHKYSLKEALCDPTVASRLSDTKAAGEVKALDDFYKMLQHEPDRAFYGLKQVERANEALAIDTLLISDELFRHQDVATRSRYVRLVDSVKENAGTVRIFSSLHVSGEQLGQLTGVAAILRFPVPELSDQEDDSSSEED
